Laboratory results: the supplement of paper PMC9112550, “Optimization of the antimicrobial peptide Bac7 by deep mutational scanning” (BMC Biology, 2022)

System: Escherichia coli TOP10
Test: shrunken log2 fold change of peptide-encoding DNA abundance (4.5 h post-induction vs induction); higher = less antimicrobial activity (less host growth inhibition)
Conditions: time post-induction: 4.5 h; library: site-saturation at positions 5, 18, 19, 20
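Note: peptides expressed intracellularly from a pBAD plasmid library in pooled LB shake-flask culture, induced with 0.3% L-arabinose, DNA abundance read by NGS, three biological replicates, DESeq2 with apeglm shrinkage.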

## RRIRPRPPRLPRPRPRPSQYPRP
  shrunken log2 fold change: -0.415

## RRIRPRPPRLPRPRPRPMDYPRP
  shrunken log2 fold change: -0.165

## RRIRNRPPRLPRPRPRPVEWPRP
  shrunken log2 fold change: 0.00664

## RRIRYRPPRLPRPRPRPEGCPRP
  shrunken log2 fold change: 0.204

## RRIRIRPPRLPRPRPRPWRVPRP
  shrunken log2 fold change: -0.0531

## RRIRVRPPRLPRPRPRPFMRPRP
  shrunken log2 fold change: 0.184

## RRIRSRPPRLPRPRPRPPVMPRP
  shrunken log2 fold change: 0.0439

## RRIRDRPPRLPRPRPRPWAKPRP
  shrunken log2 fold change: -0.0135

## RRIRYRPPRLPRPRPRPSIPPRP
  shrunken log2 fold change: -1.32

## RRIRPRPPRLPRPRPRPVPLPRP
  shrunken log2 fold change: 0.0768

## RRIRNRPPRLPRPRPRPLAHPRP
  shrunken log2 fold change: 0.212

## RRIRIRPPRLPRPRPRPHITPRP
  shrunken log2 fold change: -0.66

## RRIRYRPPRLPRPRPRPGTQPRP
  shrunken log2 fold change: -0.141

## RRIRLRPPRLPRPRPRPVKQPRP
  shrunken log2 fold change: -0.0196

## RRIRVRPPRLPRPRPRPWVKPRP
  shrunken log2 fold change: -0.235

## RRIRMRPPRLPRPRPRPTRSPRP
  shrunken log2 fold change: 1.35

## RRIRRRPPRLPRPRPRPAAVPRP
  shrunken log2 fold change: 0.462

## RRIRHRPPRLPRPRPRPMPCPRP
  shrunken log2 fold change: -0.105

## RRIRRRPPRLPRPRPRPMRAPRP
  shrunken log2 fold change: 0.905

## RRIRTRPPRLPRPRPRPLHFPRP
  shrunken log2 fold change: -0.189

## RRIRMRPPRLPRPRPRPYSGPRP
  shrunken log2 fold change: -0.00278

## RRIRDRPPRLPRPRPRPKAPPRP
  shrunken log2 fold change: 0.341

## RRIRHRPPRLPRPRPRPLLLPRP
  shrunken log2 fold change: -0.208

## RRIRCRPPRLPRPRPRPWNKPRP
  shrunken log2 fold change: -0.684

## RRIRPRPPRLPRPRPRPIRVPRP
  shrunken log2 fold change: -0.262

## RRIRWRPPRLPRPRPRPCRDPRP
  shrunken log2 fold change: -0.0737

## RRIRVRPPRLPRPRPRPGPKPRP
  shrunken log2 fold change: 0.254

## RRIRQRPPRLPRPRPRPNGNPRP
  shrunken log2 fold change: -0.405

## RRIRNRPPRLPRPRPRPRNRPRP
  shrunken log2 fold change: -0.000801

## RRIRLRPPRLPRPRPRPTPDPRP
  shrunken log2 fold change: 0.626

## RRIRQRPPRLPRPRPRPIVNPRP
  shrunken log2 fold change: -0.0197

## RRIRCRPPRLPRPRPRPYEHPRP
  shrunken log2 fold change: -0.554

## RRIRIRPPRLPRPRPRPEESPRP
  shrunken log2 fold change: 0.124

## RRIRVRPPRLPRPRPRPACRPRP
  shrunken log2 fold change: -0.132

## RRIRHRPPRLPRPRPRPNFNPRP
  shrunken log2 fold change: -0.509

## RRIRHRPPRLPRPRPRPHTLPRP
  shrunken log2 fold change: -0.247

## RRIRNRPPRLPRPRPRPTMSPRP
  shrunken log2 fold change: -0.453

## RRIRYRPPRLPRPRPRPAEPPRP
  shrunken log2 fold change: 0.0314

## RRIRARPPRLPRPRPRPQQLPRP
  shrunken log2 fold change: 0.176

## RRIRERPPRLPRPRPRPRNFPRP
  shrunken log2 fold change: -0.456

## RRIRPRPPRLPRPRPRPSLAPRP
  shrunken log2 fold change: 0.185

## RRIRERPPRLPRPRPRPPFTPRP
  shrunken log2 fold change: 1.17

## RRIRCRPPRLPRPRPRPVKCPRP
  shrunken log2 fold change: -0.432

## RRIRQRPPRLPRPRPRPCYYPRP
  shrunken log2 fold change: -0.265

## RRIRARPPRLPRPRPRPWFIPRP
  shrunken log2 fold change: -0.502

## RRIRIRPPRLPRPRPRPYIQPRP
  shrunken log2 fold change: -1.75

## RRIRSRPPRLPRPRPRPQTTPRP
  shrunken log2 fold change: -0.237

## RRIRCRPPRLPRPRPRPQALPRP
  shrunken log2 fold change: 0.0319

## RRIRNRPPRLPRPRPRPFDWPRP
  shrunken log2 fold change: 0.0435

## RRIRLRPPRLPRPRPRPFRGPRP
  shrunken log2 fold change: -0.0479

## RRIRMRPPRLPRPRPRPFSLPRP
  shrunken log2 fold change: -0.282

## RRIRPRPPRLPRPRPRPTGWPRP
  shrunken log2 fold change: 0.519

## RRIRWRPPRLPRPRPRPESLPRP
  shrunken log2 fold change: 0.412

## RRIRARPPRLPRPRPRPSPLPRP
  shrunken log2 fold change: 0.238

## RRIRTRPPRLPRPRPRPAPTPRP
  shrunken log2 fold change: 0.0808

## RRIRMRPPRLPRPRPRPMDRPRP
  shrunken log2 fold change: -0.0181

## RRIRTRPPRLPRPRPRPYKWPRP
  shrunken log2 fold change: -0.0875

## RRIRRRPPRLPRPRPRPSAWPRP
  shrunken log2 fold change: 0.462

## RRIRIRPPRLPRPRPRPRQHPRP
  shrunken log2 fold change: -0.199

## RRIRVRPPRLPRPRPRPCEDPRP
  shrunken log2 fold change: -0.0254

## RRIRCRPPRLPRPRPRPRNDPRP
  shrunken log2 fold change: -0.191

## RRIRQRPPRLPRPRPRPQFNPRP
  shrunken log2 fold change: -0.6

## RRIRCRPPRLPRPRPRPDHEPRP
  shrunken log2 fold change: -0.144

## RRIRTRPPRLPRPRPRPYEHPRP
  shrunken log2 fold change: -0.0707

## RRIRDRPPRLPRPRPRPFCYPRP
  shrunken log2 fold change: 0.0322

## RRIRGRPPRLPRPRPRPRQVPRP
  shrunken log2 fold change: 0.585

## RRIRDRPPRLPRPRPRPTMDPRP
  shrunken log2 fold change: -0.0444

## RRIRSRPPRLPRPRPRPCHWPRP
  shrunken log2 fold change: -0.0782

## RRIRERPPRLPRPRPRPDLEPRP
  shrunken log2 fold change: -0.0701

## RRIRARPPRLPRPRPRPMGMPRP
  shrunken log2 fold change: 0.211

## RRIRDRPPRLPRPRPRPVGYPRP
  shrunken log2 fold change: 0.0934

## RRIRGRPPRLPRPRPRPQPFPRP
  shrunken log2 fold change: -0.0232

## RRIRNRPPRLPRPRPRPFCQPRP
  shrunken log2 fold change: -0.677

## RRIRSRPPRLPRPRPRPSGVPRP
  shrunken log2 fold change: -0.0112

## RRIRPRPPRLPRPRPRPKKMPRP
  shrunken log2 fold change: 2.39

## RRIRNRPPRLPRPRPRPVNAPRP
  shrunken log2 fold change: 0.16

## RRIRRRPPRLPRPRPRPMPMPRP
  shrunken log2 fold change: 0.0681

## RRIRARPPRLPRPRPRPELDPRP
  shrunken log2 fold change: 1.78

## RRIRPRPPRLPRPRPRPGQCPRP
  shrunken log2 fold change: -0.0386

## RRIRFRPPRLPRPRPRPSEFPRP
  shrunken log2 fold change: -0.301

## RRIRMRPPRLPRPRPRPCLNPRP
  shrunken log2 fold change: -0.0184

## RRIRNRPPRLPRPRPRPDILPRP
  shrunken log2 fold change: -0.156

## RRIRQRPPRLPRPRPRPKWPPRP
  shrunken log2 fold change: 0.166

## RRIRERPPRLPRPRPRPVVNPRP
  shrunken log2 fold change: -0.257

## RRIRDRPPRLPRPRPRPHNQPRP
  shrunken log2 fold change: -0.398

## RRIRVRPPRLPRPRPRPDMMPRP
  shrunken log2 fold change: 0.0644

## RRIRRRPPRLPRPRPRPSYGPRP
  shrunken log2 fold change: -0.83

## RRIRHRPPRLPRPRPRPVRAPRP
  shrunken log2 fold change: 0.571

## RRIRPRPPRLPRPRPRPSGYPRP
  shrunken log2 fold change: -0.204

## RRIRYRPPRLPRPRPRPYCRPRP
  shrunken log2 fold change: -0.377

## RRIRYRPPRLPRPRPRPIYYPRP
  shrunken log2 fold change: -0.461

## RRIRLRPPRLPRPRPRPCYMPRP
  shrunken log2 fold change: -0.308

## RRIRHRPPRLPRPRPRPDQHPRP
  shrunken log2 fold change: -0.00237

## RRIRPRPPRLPRPRPRPNMHPRP
  shrunken log2 fold change: -0.329

## RRIRWRPPRLPRPRPRPWQRPRP
  shrunken log2 fold change: 0.551

## RRIRFRPPRLPRPRPRPQEIPRP
  shrunken log2 fold change: -0.0426

## RRIRTRPPRLPRPRPRPRFYPRP
  shrunken log2 fold change: -0.367

## RRIRTRPPRLPRPRPRPLSFPRP
  shrunken log2 fold change: -0.124

## RRIRKRPPRLPRPRPRPWIWPRP
  shrunken log2 fold change: 1.96

## RRIRYRPPRLPRPRPRPVRCPRP
  shrunken log2 fold change: 0.0877

## RRIRVRPPRLPRPRPRPDWNPRP
  shrunken log2 fold change: -0.343

## RRIRERPPRLPRPRPRPHKIPRP
  shrunken log2 fold change: -0.13

## RRIRDRPPRLPRPRPRPRDPPRP
  shrunken log2 fold change: 2.7

## RRIRTRPPRLPRPRPRPRDAPRP
  shrunken log2 fold change: 0.881

## RRIRERPPRLPRPRPRPCQNPRP
  shrunken log2 fold change: -0.0177

## RRIRNRPPRLPRPRPRPPKTPRP
  shrunken log2 fold change: -0.103

## RRIRLRPPRLPRPRPRPMNWPRP
  shrunken log2 fold change: 0.134

## RRIRMRPPRLPRPRPRPWPKPRP
  shrunken log2 fold change: 0.543

## RRIRNRPPRLPRPRPRPLAFPRP
  shrunken log2 fold change: 0.0414

## RRIRLRPPRLPRPRPRPMDNPRP
  shrunken log2 fold change: -1.1

## RRIRTRPPRLPRPRPRPDVPPRP
  shrunken log2 fold change: -0.0167

## RRIRGRPPRLPRPRPRPHKSPRP
  shrunken log2 fold change: 0.277

## RRIRLRPPRLPRPRPRPPLYPRP
  shrunken log2 fold change: 1.61

## RRIRHRPPRLPRPRPRPQLIPRP
  shrunken log2 fold change: 0.00748

## RRIRSRPPRLPRPRPRPADGPRP
  shrunken log2 fold change: 0.218

## RRIRFRPPRLPRPRPRPWVAPRP
  shrunken log2 fold change: -0.139

## RRIRSRPPRLPRPRPRPFHMPRP
  shrunken log2 fold change: -0.365

## RRIRARPPRLPRPRPRPPMMPRP
  shrunken log2 fold change: 0.421

## RRIRGRPPRLPRPRPRPDNRPRP
  shrunken log2 fold change: -0.0893

## RRIRPRPPRLPRPRPRPVVNPRP
  shrunken log2 fold change: -0.229

## RRIRYRPPRLPRPRPRPPNHPRP
  shrunken log2 fold change: -0.626

## RRIRYRPPRLPRPRPRPNCAPRP
  shrunken log2 fold change: -0.214

## RRIRCRPPRLPRPRPRPHVWPRP
  shrunken log2 fold change: -0.185

## RRIRSRPPRLPRPRPRPSQYPRP
  shrunken log2 fold change: -0.466

## RRIRFRPPRLPRPRPRPYQWPRP
  shrunken log2 fold change: -0.655
